Reference: PMC8078012 (Cell systems, 2020)

Molecular target: MBP-GSK3β-HA-His (human, UniProt P49841 1-420, phosphotyrosine at 216 (activation loop))
Assay: BLI

MBP-GSK3β-HA-His, sequence (P49841 whole entry): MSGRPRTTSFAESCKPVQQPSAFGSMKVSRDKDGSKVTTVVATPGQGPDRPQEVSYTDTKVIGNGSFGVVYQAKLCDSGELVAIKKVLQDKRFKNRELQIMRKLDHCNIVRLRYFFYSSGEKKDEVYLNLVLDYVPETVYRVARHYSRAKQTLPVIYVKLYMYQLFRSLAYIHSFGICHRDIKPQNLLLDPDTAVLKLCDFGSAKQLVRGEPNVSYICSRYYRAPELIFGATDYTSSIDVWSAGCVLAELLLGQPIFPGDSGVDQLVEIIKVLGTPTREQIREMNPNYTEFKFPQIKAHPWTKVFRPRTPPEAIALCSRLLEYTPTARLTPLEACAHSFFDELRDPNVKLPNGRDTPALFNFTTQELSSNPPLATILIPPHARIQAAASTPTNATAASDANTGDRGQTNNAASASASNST

B1: MBP-Axin_(384-518)-His (miniAxin) (domain or fragment, human, UniProt O15169-2 384-518, looked up)
chain: EPQKFAEELIHRLEAVQRTREAEEKLEERLKRVRMEEEGEDGDPSSGPPGPCHKLPPAPAWHHFPPRCVDMGCAGLRDAHEENPESILDEHVQRVLRTPGRQSPGPGHRSPDSGHVAKMPVALGGAASGHGKHVP
modifications: biotin (NHS-PEG4-biotin, molar coupling ratio 1:1) where it was immobilised (assay with GSK3β)
  Kd: 16 nM
